Key:
[1] = molecular target: T1, recombinant 6×Histidine tagged human SORT1 (Homo sapiens, UniProt Q99523); assay: Surface plasmone resonance binding of Naglu-SPP to SORT1
T1 sequence (Q99523 78-831): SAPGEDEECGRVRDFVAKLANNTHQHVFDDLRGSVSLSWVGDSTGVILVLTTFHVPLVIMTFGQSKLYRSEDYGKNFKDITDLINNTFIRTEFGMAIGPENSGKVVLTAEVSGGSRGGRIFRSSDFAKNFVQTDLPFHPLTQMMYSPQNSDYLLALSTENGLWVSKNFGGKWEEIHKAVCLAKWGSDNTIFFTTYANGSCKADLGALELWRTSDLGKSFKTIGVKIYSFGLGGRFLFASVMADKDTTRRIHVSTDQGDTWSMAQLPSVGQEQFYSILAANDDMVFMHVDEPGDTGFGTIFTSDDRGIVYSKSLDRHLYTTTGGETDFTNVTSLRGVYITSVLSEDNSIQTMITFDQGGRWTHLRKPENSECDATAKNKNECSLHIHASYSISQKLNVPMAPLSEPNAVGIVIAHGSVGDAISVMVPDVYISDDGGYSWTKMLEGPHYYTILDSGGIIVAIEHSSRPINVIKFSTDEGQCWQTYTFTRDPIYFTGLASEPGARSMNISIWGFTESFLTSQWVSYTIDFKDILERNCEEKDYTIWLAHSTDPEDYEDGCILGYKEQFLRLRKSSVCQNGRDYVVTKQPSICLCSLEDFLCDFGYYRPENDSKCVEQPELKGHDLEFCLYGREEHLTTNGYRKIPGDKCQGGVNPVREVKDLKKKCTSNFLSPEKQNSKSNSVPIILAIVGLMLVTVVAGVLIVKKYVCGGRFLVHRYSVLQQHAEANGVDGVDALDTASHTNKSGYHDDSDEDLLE
Description: Studies were also carried out to determine the binding properties of Naglu-SPP and evaluate its specificity for SORT1 by surface plasmone resonance (SPR), a commonly used standard technique. Briefly, anti-His mAb (capturing molecule) was diluted in immobilization buffer and bound on the dextran surface of a SPR sensor chip housed in a microfluidic system. Next, a solution containing recombinant 6×Histidine tagged human SORT1 (ligand) was injected into the microflow system and run over the surface-bound anti-His mAbs to form a “capture complex.” A solution containing purified Naglu-SPP protein (analyte) was then injected into the device. As the solution moved over the SPR sensor chip, the analyte bound to the capture complex and an increase in SPR signal (expressed in response units, RU) was observed. Finally, a solution without analyte was injected into the microfluidic device to detach bound […] from the capture complex, resulting in a decrease in SPR signal. The detailed experimental conditions are described in Table 6 below.

[2] = test system: SORT1 overexpressing cells; assay: Cellular uptake in Sortilin overexpressing cells (intracellular Naglu enzyme activity); assay type: cell-based; details: absence of Neurotensin
Description: A cell line was established overexpressing SORT1, using standard technologies known in the art. […] After a specified period of time, the supernatant was removed and the cells were washed repeatedly. Then, cells were lysed and each sample was assayed for Naglu enzyme activity.

[3] = test system: SORT overexpressing cells; assay: Immunofluorescence microscopy of cellular entry and lysosomal targeting (Naglu / Lamp-1); assay type: cell-based
Description: Studies were carried out using immunofluorescence microscopy to evaluate cellular entry and lysosomal targeting. For these studies, SORT overexpressing cells were treated with vehicle control or Naglu-SPP and then fixed and prepared for staining. Both vehicle control (FIG. 6A) and Naglu-SPP (FIG. 6B) treated cells were stained using antibodies specific for human Naglu and Lamp-1, a lysosome-specific protein biomarker.

[4] = test system: wild-type rats; assay: Naglu enzyme activity in liver and brain after intrathecal administration (biodistribution); assay type: in vivo; details: 385 ug/animal
Description: (§1) To evaluate biodistribution of the SORT1-binding Naglu fusion proteins, an in vivo study was conducted using wild-type rats subjected to intrathecal administration of vehicle control (PBS), rhNaglu, Naglu-IGFII, Naglu-SPP, Naglu-SapDC or Naglu-tPRGN. Details of the experimental design are provide in Table 9 below. Previous experiments had shown that Naglu-IGFII but not rhNaglu penetrates into brain tissue and is targeted to lysosomes after intrathecal injection. Accordingly, rhNaglu and Naglu-IGFII were utilized in this study as negative and positive controls, respectively.
Rats were sacrificed either 4 or 24 hours post intrathecal administration of the respective fusion protein and total Naglu enzyme activity in the animals' liver and brain tissue was determined using a well-established enzyme activity assay (FIGS. 7A and B). Briefly, brain and liver tissue homogenates were prepared and incubated in the presence of a Naglu specific substrate, i.e., methylumbelliferyl-N-acetyl-α-D-glucosainide; accumulation of cleavage product was then measured by examining fluorescence intensity at 360/460 nm (excitation/emission) using a fluorescent plate reader.

[5] = test system: wild-type rats; assay: Immunohistochemistry of Naglu protein in brain tissue after intrathecal administration; assay type: in vivo
Description: as §1
Rats were sacrificed either 4 or 24 hours post intrathecal administration of the respective fusion protein. Brain tissue samples were collected, fixed in 10% NBF and processed for paraffin embedding. 5 μm paraffin sections from each tissue assayed were subjected to immunostaining using an anti-human Naglu antibody.

[6] = test system: Naglu KO mice; assay: Heparan sulfate in brain by LC/MS; assay type: in vivo; details: intrathecal, 520 mg/kg brain, 2× weekly and 3× weekly
Description: (§2) To evaluate the in vivo activity of Naglu-SPP and its efficacy as a therapeutic for the treatment of lysosomal storage diseases, particularly San B, Naglu-SPP was administered to Naglu KO mice via intrathecal injection. Intrathecal administration of Naglu-IGFII served as a positive control. The experimental conditions used for this assay are described in Tables 10 and 11 below.
In a second assay, we evaluation the total amount of heparan sulfate in the brain of treated KO mice. […] To measure heparan sulfate in mouse brain tissue, a highly sensitive LC/MS method was applied (Lawrence et al, 2012, Nat Chem Biol. 2012 Jan. 8; 8(2):197-204). Briefly, total GAG from brain tissue was extracted by a DEAE column and a desalting column, and then dried and weighted. The extracted GAG was treated with heparin lyases that specifically release unique mono, di and tri saccharides of heparan sulfate, and the sample was then analyzed by LC/MS. The released saccharides were identified and quantified using commercially available saccharide standards of heparan sulfate degradation.

[7] = test system: Naglu KO mice; assay: Sanfillipo B specific biomarkers in brain by LC/MS; assay type: in vivo; details: intrathecal, 520 mg/kg brain, especially 2× weekly and 3× weekly
Description: as §2
Using the same LC/MS technology as used for the quantification of heparin sulfate (see above), the presence of Sanfillipo B specific biomarkers in brains of treated KO mice were evaluated. Naglu deficiency causes the accumulation of certain heparin sulfate degradation products (presented in FIGS. 13A-C) which are natural substrates of Naglu. These biomarkers are the most relevant indications for Naglu deficiency.

B1: Naglu-SPP: Fusion protein of human Naglu and SORT1 propeptide (SPP) via GAG3 linker; SEQ ID NO:17 (full-length), SEQ ID NO:22 (protein)
chain: MEAVAVAAAVGVLLLAGAGGAAGDEAREAAAVRALVARLLGPGPAADFSVSVERALAAKPGLDTYSLGGGGAARVRVRGSTGVAAAAGLHRYLRDFCGCHVAWSGSQLRLPRPLPAVPGELTEATPNRYRYYQNVCTQSYSFVWWDWARWEREIDWMALNGINLALAWSGQEAIWQRVYLALGLTQAEINEFFTGPAFLAWGRMGNLHTWDGPLPPSWHIKQLYLQHRVLDQMRSFGMTPVLPAFAGHVPEAVTRVFPQVNVTKMGSWGHFNCSYSCSFLLAPEDPIFPIIGSLFLRELIKEFGTDHIYGADTFNEMQPPSSEPSYLAAATTAVYEAMTAVDTEAVWLLQGWLFQHQPQFWGPAQIRAVLGAVPRGRLLVLDLFAESQPVYTRTASFQGQPFIWCMLHNFGGNHGLFGALEAVNGGPEAARLFPNSTMVGTGMAPEGISQNEVVYSLMAELGWRKDPVPDLAAWVTSFAARRYGVSHPDAGAAWRLLLRSVYNCSGEACRGHNRSPLVRRPSLQMNTSIWYNRSDVFEAWRLLLTSAPSLATSPAFRYDLLDLTRQAVQELVSLYYEEARSAYLSKELASLLRAGGVLAYELLPALDEVLASDSRFLLGSWLEQARAAAVSEAEADFYEQNSRYQLTLWGPEGNILDYANKQLAGLVANYYTPRWRLFLEALVDSVAQGIPFQQHQFDKNVFQLEQAFVLSKQRYPSQPRGDTVDLAKKIFLKYYPRWVAGSWGAPGGGGGAAAAAGGGGGGAPGGGGGAAAAAGGGGGGAPGGGGGAAAAAGGGGGGAPQDRLDAPPPPAAPLPRWSGPIGVSWGLRAAAAGGAFPRGGRWRR
- average association constant (Ka) ([1]; SPR, Naglu-SPP 0 to 20 nM): approximately 1.1×10^6 1/Ms
- dissociation constant (Kd) ([1]; SPR, Naglu-SPP 0 to 20 nM): approximately 7.1×10^−4 1/s
- binding to SORT1 ([1]; all concentrations tested (0 to 20 nM)): strong binding
- Bmax of binding/uptake [2]: 1260 nmol/h/mg
- cellular internalization (intracellular Naglu activity) [2]: effectively internalized
- intracellular localization of Naglu fluorescence (co-localization with Lamp-1) [3]: localized predominantly within lysosomal vesicles
- rank of Naglu enzyme activity in brain among treatments [4]: highest activity
- Naglu enzyme activity in brain ([4]; 4 or 24 hours post dose): markedly elevated levels
- Naglu immunostaining in cerebral cortex / brain parenchyma ([5]; 4 and 24 hours post treatment): positive staining
- Naglu immunostaining in cerebellum and hippocampal region ([5]; 24 hours post injection): strong Naglu signal
- total amount of heparan sulfate accumulation in brain tissue [6]: strong reduction
- accumulation of three GAG cleavage products (San B biomarkers) in brain [7]: dramatic decrease
